From US20170283509A1 (University of Texas, published 2017)

B3: Anterior Gradient 2 (AGR2), endogenous protein from PDAC cell lysate (SU86.86) (ligand)
chain: RDTTVKPGAKKDTKDSRPKLPQTLSRGWGDQLIWTQTYEEALYKSKTSNKPLMIIHHLDECPHSQALKKVFAENKEIQKLAEQFVLLNLVYETTDKHLSPDGQYVPRIMFVDPSLTVRADITGRYSNRLYAYEPADTALLLDNMKKALKLLKTEL
notes: Endogenous AGR2 of human pancreatic cancer cell lysates, used in IP and western blot; also called hAG-2; Gob-4

Tests used:
[1] = target: T1, C4.4A (LYPD3), endogenous protein of PDAC cells (human, UniProt O95274 31-326); experiment: western blot (FIG. 5A)
T1 construct: On PDAC cells in the functional assays
T1 sequence: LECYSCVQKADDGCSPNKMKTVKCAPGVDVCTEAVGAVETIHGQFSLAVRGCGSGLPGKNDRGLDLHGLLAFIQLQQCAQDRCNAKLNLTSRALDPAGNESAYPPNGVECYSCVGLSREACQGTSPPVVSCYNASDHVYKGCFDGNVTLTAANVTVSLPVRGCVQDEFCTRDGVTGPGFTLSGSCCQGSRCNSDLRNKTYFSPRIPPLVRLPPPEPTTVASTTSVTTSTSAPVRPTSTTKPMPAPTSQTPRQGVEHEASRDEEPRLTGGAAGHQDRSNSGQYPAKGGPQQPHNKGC

[2] = target: T2, C4.4A antigenic peptide (CPVRPTSTTKPMPAPTSQTPRQGVEHEASRDEEPRL; SEQ ID NO: 4) (human); experiment: ELISA, antigenic peptide (0.5 ug) coated, probed with purified Ab (FIG. 11D)
T2 peptide: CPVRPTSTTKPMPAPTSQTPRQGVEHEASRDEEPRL
Protocol: (§1) FIGS. 11A-D. Monoclonal antibodies developed bind respectively to AGR2 and C4.4A proteins and blocked their functions. From the endogenous lysate (SU86.86/Panc-1), AGR2 (18 kD) and C4.4A (50 kD) were identified by a panel of mAbs. […] Extra bands identified with the endogenous protein were re-confirmed with the recombinant protein. For apoptosis studies, AsPC-1 cells were treated without or with Gem (0.5 μM) and rAGR2 (100 nM) and with purified (A) AGR2 and (B) C4.4A Abs (1 μM). Commercially available Abs served as control. […] Horizontal line represents median apoptotic value. Data shown are mean±SE for 3 experiments (*p<0.05). (C,D) Binding assays were conducted with purified (C) AGR2 and (D) C4.4A Abs as selected from the apoptosis assay as having high blocking efficiency. ELISA assays were conducted by coating antigenic peptide (0.5 μg) and probed with respective purified Abs. Data shown are mean±SE for 3 experiments (*p <0.05). Based on high specificity and binding, clone 28B for AGR2 and 1A for C4.4A were selected. Purified Abs were also run on 4-20% gradient gel to check for the presence of heavy (50 kD) and light chains (25 kD).

[3] = target: B3; experiment: western blot (FIG. 5A)
[4] = target: T3, human recombinant AGR2 (rAGR2) (ab64013, AbCam) (human, UniProt O95994 21-175, limits assumed); experiment: western blot (FIG. 5A)
T3 construct: also called extracellular AGR2
T3 sequence: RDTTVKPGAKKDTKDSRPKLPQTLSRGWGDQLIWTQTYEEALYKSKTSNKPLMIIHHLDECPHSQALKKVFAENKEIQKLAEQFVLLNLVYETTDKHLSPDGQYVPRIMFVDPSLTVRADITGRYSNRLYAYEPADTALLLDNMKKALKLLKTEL

[5] = target: T4, AGR2 antigenic peptide (CIHHLDESPHSQALKKVFAENKEIQKLAEQ; SEQ ID NO: 3) (human); experiment: ELISA, antigenic peptide (0.5 ug) coated, probed with purified Ab (FIG. 11C)
T4 peptide: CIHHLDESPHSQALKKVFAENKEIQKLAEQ
Protocol: as §1

[6] = target: T1, C4.4A (LYPD3), endogenous protein of …; experiment: co-immunoprecipitation from SU86.86 lysate with commercial anti-AGR2 antibody, western blot
dystroglycan-1 (DAG-1) = target: T5, dystroglycan-1 (DAG-1) (UniProt Q14118 30-895, limits assumed); experiment: as above
T5 construct: Endogenous protein of a PDAC cell lysate; also called Dystoglycan-1
T5 sequence (looked up): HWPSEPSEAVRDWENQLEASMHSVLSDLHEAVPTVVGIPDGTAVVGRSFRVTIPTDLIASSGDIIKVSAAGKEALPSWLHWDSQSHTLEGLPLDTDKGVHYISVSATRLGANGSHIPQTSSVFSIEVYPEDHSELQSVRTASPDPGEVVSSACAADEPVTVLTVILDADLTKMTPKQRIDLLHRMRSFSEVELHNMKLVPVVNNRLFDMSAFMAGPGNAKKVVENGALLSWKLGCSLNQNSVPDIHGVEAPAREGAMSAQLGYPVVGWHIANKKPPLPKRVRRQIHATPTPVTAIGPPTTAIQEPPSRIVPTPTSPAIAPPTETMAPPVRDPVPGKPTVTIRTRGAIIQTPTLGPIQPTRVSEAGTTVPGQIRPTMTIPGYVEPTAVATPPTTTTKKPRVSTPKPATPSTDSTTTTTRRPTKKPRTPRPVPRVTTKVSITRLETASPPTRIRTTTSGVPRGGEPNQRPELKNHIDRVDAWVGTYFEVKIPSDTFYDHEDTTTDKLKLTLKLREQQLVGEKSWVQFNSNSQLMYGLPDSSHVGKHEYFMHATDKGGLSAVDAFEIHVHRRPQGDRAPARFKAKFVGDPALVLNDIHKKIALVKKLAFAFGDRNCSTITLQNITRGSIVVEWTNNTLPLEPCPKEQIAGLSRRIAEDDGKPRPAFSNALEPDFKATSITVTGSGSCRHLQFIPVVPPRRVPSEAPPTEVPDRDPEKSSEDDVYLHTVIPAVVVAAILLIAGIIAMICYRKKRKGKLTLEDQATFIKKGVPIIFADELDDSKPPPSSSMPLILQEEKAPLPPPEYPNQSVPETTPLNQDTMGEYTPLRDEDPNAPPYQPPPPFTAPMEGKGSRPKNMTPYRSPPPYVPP

B1: 162-1A-1 monoclonal antibody (antibody, V domains shown)
VH: EVMLVESGGGLVKPGGSLKLSCAASGFTFSSYTMSWVRQTPEKRLEWVASISSGGGNTYYADSVKGRFTMSRDNAKNNLYLQMSSLRSEDTALYYCARSYYYGISYDTYWGQGTLVTVSA
VL: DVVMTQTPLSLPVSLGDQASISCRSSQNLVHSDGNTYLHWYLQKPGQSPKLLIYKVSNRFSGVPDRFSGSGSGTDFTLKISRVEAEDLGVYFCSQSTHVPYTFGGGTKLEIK
notes: also called C4.4A mAb; clone 1A
B1: binds [1]; binds [2].

B2: 163-28B-1 monoclonal antibody (antibody, V domains shown)
VH: QIQLVQSGPELKKPGETVKISCKASGYTFTNYGMNWVKQAPGKGLKWMGWINTDTGKPTYTEEFKGRFAFSLATSASTAYLQINNLRNEDTATYFCGRVTADSMDYWGQGTSVTVSS
VL: DVVMTQTPLSLPVSLGDQASISCRSSQSLVHSNGNIYLHWFLQKPGQSPKLLIYKVSNRFSGVPDRFSGSGSGTDFTLKISRVEAEDLGVYFCSQSTHVPLTFGAGTKLELK
notes: also called AGR2 mAb; clone 28B
B2: binds [3]; binds [4]; binds [5].

B3: binds [6]; no binding (dystroglycan-1 (DAG-1)).
